Data from the supplement of paper PMC7125110.
± gives the standard error. For some of these results: Variants at the floor of the assay were thinned out.

B1: glmS ribozyme (parent)
chain: AUAAAAGCGCCAGAACUACAGAAAUGUAGUUGACGAGGAGGAGGUUUAUCGAAUUUUCGGCGGAUGCCUCCAAA

What was measured:
Conditions in all cases: with glucosamine-6-phosphate
glucosamine-6-phosphate [1] = variants of: B1; assay: kcat; higher = faster cleavage; RNA array
Summary of the method: (§1)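 Tracking of barcoded ribozyme variants used a hybridised Cy3 probe at 37 °C, after in situ transcription by E. coli RNA polymerase on sequenced MiSeq chips. The flowed solution held 40 μM to 10 mM glucosamine-6-phosphate in HEPES/KCl/Mg(OAc)2 buffer, and imaging ran over ~14 h. kobs was taken from exponential decay fits of normalised per-tile medians, and kcat and KM from weighted Michaelis–Menten fits.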

glucosamine-6-phosphate [2] = variants of: B1; assay: KM; higher = weaker cofactor use; RNA array
Summary of the method: as §1

glucosamine-6-phosphate [3] = variants of: B1; assay: self-cleavage kobs at 2500 uM GlcN6P; higher = faster cleavage; RNA array
Summary of the method: as §1

glucosamine-6-phosphate [4] = variants of: B1; assay: self-cleavage kobs at 10000 uM GlcN6P; higher = faster cleavage; RNA array
Summary of the method: as §1

glucosamine-6-phosphate [5] = variants of: B1; assay: self-cleavage kobs at 40 uM GlcN6P; higher = faster cleavage; RNA array
Summary of the method: as §1

glucosamine-6-phosphate [6] = variants of: B1; assay: self-cleavage kobs at 160 uM GlcN6P; higher = faster cleavage; RNA array
Summary of the method: as §1

glucosamine-6-phosphate [7] = variants of: B1; assay: self-cleavage kobs at 640 uM GlcN6P; higher = faster cleavage; RNA array
Summary of the method: as §1

Variant | kcat (glucosamine-6-phosphate [1]) [s⁻¹] | KM (glucosamine-6-phosphate [2]) [µM] | self-cleavage kobs at 2500 uM GlcN6P (glucosamine-6-phosphate [3]) [s⁻¹] | self-cleavage kobs at 10000 uM GlcN6P (glucosamine-6-phosphate [4]) [s⁻¹] | self-cleavage kobs at 40 uM GlcN6P (glucosamine-6-phosphate [5]) [s⁻¹] | self-cleavage kobs at 160 uM GlcN6P (glucosamine-6-phosphate [6]) [s⁻¹] | self-cleavage kobs at 640 uM GlcN6P (glucosamine-6-phosphate [7]) [s⁻¹]
G7A A14G | 9.79e-05 ± 3.9e-06 | 3550 ± 470 | 3.92e-05 ± 1.5e-05 | 7.23e-05 ± 6.8e-06 |  |  | 
A15G A42G | 0.132 ± 0.031 | 3780 ± 970 |  |  | 0.00132 ± 0.00047 | 0.00525 ± 0.0011 | 0.024 ± 0.0099
U46A C67G | 0.000319 ± 2.1e-05 | 2290 ± 290 | 0.000187 ± 3.5e-05 | 0.000254 ± 3.3e-05 |  |  | 6.75e-05 ± 1.1e-05
A6G U65G | 0.000323 ± 2.1e-05 | 3580 ± 500 | 0.000141 ± 1.6e-05 | 0.000234 ± 2e-05 |  |  | 4.35e-05 ± 1e-05
U45C G66U | 0.000814 ± 9.5e-05 | 2830 ± 630 | 0.000326 ± 8.3e-05 | 0.000653 ± 8.2e-05 |  | 4.7e-05 ± 1.5e-05 | 0.000151 ± 3.2e-05
C11A C71G | 5.67e-05 ± 6.5e-06 |  | 4.99e-05 ± 1.2e-05 | 5.95e-05 ± 1.3e-05 |  |  | 
G7U G37C | < 1e-05 |  |  |  | < 1e-05 |  | < 1e-05
C50U C68G | 4.93e-05 ± 1.9e-05 |  | 7.89e-05 ± 1.4e-05 |  |  | 3.88e-05 ± 1.6e-05 | 6.55e-05 ± 1.1e-05
G44U U47A | 0.00016 ± 1.2e-05 | 1850 ± 460 | 9.01e-05 ± 1.7e-05 | 0.000136 ± 1.6e-05 |  |  | 4.97e-05 ± 2.4e-05
G40C G41A | 0.000118 ± 1.4e-05 | 667 ± 260 | 0.000104 ± 1.1e-05 | 0.000101 ± 1.3e-05 |  |  | 5.69e-05 ± 8.6e-06
G43U U46G | 2.88e-05 ± 5.1e-06 |  |  |  |  |  | < 1e-05
C16A A39C U65G | 5.91e-05 ± 2.8e-05 |  | 8.69e-05 ± 3e-05 |  |  |  | 
A15C G29C | 0.00165 ± 0.00021 | 2620 ± 510 | 0.000772 ± 9.9e-05 | 0.00135 ± 0.00018 | 3.67e-05 ± 1e-05 | 8.7e-05 ± 1.5e-05 | 0.000333 ± 4.2e-05
U31C A52G C67U | 0.000208 ± 9.4e-05 |  | 6.61e-05 ± 1.4e-05 | 0.000147 ± 2.6e-05 |  |  | 9.07e-05 ± 3.5e-05
A6U A15U G63U G66A | 1.95e-05 ± 6.5e-06 |  |  |  |  |  | 
U56C G66U | 0.000242 ± 4e-05 | 1500 ± 650 | 0.000133 ± 2e-05 | 0.000231 ± 3.4e-05 |  |  | 8.87e-05 ± 2e-05
U30C A36C | < 1e-05 |  | < 1e-05 | < 1e-05 | < 1e-05 |  | 
C58U C67A | 3.03e-05 ± 4.9e-06 |  |  | 3.07e-05 ± 7.8e-06 | < 1e-05 |  | 
